B1: Hammerhead Ribozyme (parent)
chain: ACCGGAUGUGCUUUCCGGUCUGAUGAGUCCGUGAGGACGAAACAG

Variants of: B1
Experiment: self-cleavage, relative activity (ratio to wild type); higher = more cleavage; co-transcriptional

Variant	self-cleavage
ACCGGAUGUGCUUUCCGGUCUGAUAAAUCCGUGAGGACGAAACAG [G25A G27A]	0.306
ACCGGAUGUGCUUUCCGGUCUGAUAACUCCGUGAGGACGAAACAG [G25A G27C]	0.355
ACCGGAUGUGCUUUCCGGUCUGAUAAUUCCGUGAGGACGAAACAG [G25A G27U]	0.314
ACCGGAUGUGCUUUCCGGUCUGAUAAGUCCGUGAGGACGACACAG [G25A A41C]	0.3
ACCGGAUGUGCUUUCCGGUCUGAUAAGUCCGUGAGGACGAUACAG [G25A A41U]	0.275
ACCGGAUGUGCUUUCCGGUCUGAUAAGUCCGUGAGGACGAGACAG [G25A A41G]	0.337
ACCGGAUGUGCUUUCCGGUCUGAGGAGUCCGUGACGACGAAACAG [U24G G35C]	0.839
ACCGGAUGUGCUUUCCGGUCUGAGGAGUCCGUGAUGACGAAACAG [U24G G35U]	0.907
ACCGGAUGUGCUUUCCGGUCUGAGGAGUCCGUGAAGACGAAACAG [U24G G35A]	1.03
ACCGGAUGUGCUUUCCGGUCUGAUAAGUCUGUGAGGACGAAACAG [G25A C30U]	0.331
ACCGGAUGUGCUUUCCGGUCUGAUAAGUCAGUGAGGACGAAACAG [G25A C30A]	0.369
ACCGGAUGUGCUUUCCGGUCUGAUAAGUCGGUGAGGACGAAACAG [G25A C30G]	0.305
ACCGGAUGUGCUUUCCGGUCUGAGGAGUCCGUAAGGACGAAACAG [U24G G33A]	1.18
ACCGGAUGUGCUUUCCGGUCUGAGGAGUCCGUCAGGACGAAACAG [U24G G33C]	0.81
ACCGGAUGUGCUUUCCGGUCUGAGGAGUCCGUUAGGACGAAACAG [U24G G33U]	1.02
ACCGGAUGUGCUUUCCGGUCUGAUAAGUCCGUGAGGACGAAACUG [G25A A44U]	0.343
ACCGGAUGUGCUUUCCGGUCUGAUAAGUCCGUGAGGACGAAACGG [G25A A44G]	0.64
ACCGGAUGUGCUUUCCGGUCUGAUAAGUCCGUGAGGACGAAACCG [G25A A44C]	0.38
ACCGGAUGUGCUUUCCGGUCUGAUAAGUGCGUGAGGACGAAACAG [G25A C29G]	0.347
ACCGGAUGUGCUUUCCGGUCUGAUAAGUACGUGAGGACGAAACAG [G25A C29A]	0.348
ACCGGAUGUGCUUUCCGGUCUGAUAAGUUCGUGAGGACGAAACAG [G25A C29U]	0.3
ACCGGAUGUGCUUUCCGGUCUGAUAAGUCCGUGAGGACGAACCAG [G25A A42C]	0.262
ACCGGAUGUGCUUUCCGGUCUGAUAAGUCCGUGAGGACGAAUCAG [G25A A42U]	0.333

Variant	self-cleavage
ACCGGAUGUGCUUUCCGGUCUGAUAAGUCCGUGAGGACGAAGCAG [G25A A42G]	0.242
ACCGGAUGUGCUUUCCGGUCUGAGGAGUCCGUGAGGACGAAACAC [U24G G45C]	0.536
ACCGGAUGUGCUUUCCGGUCUGAGGAGUCCGUGAGGACGAAACAU [U24G G45U]	0.489
ACCGGAUGUGCUUUCCGGUCUGAGGAGUCCGUGAGGACGAAACAA [U24G G45A]	0.541
ACCGGAUGUGCUUUCCGGUCUGAGGAGUCCGUGAGUACGAAACAG [U24G G36U]	0.803
ACCGGAUGUGCUUUCCGGUCUGAGGAGUCCGUGAGCACGAAACAG [U24G G36C]	0.452
ACCGGAUGUGCUUUCCGGUCUGAGGAGUCCGUGAGAACGAAACAG [U24G G36A]	0.862
ACCGGAUGUGCUUUCCGGUCUGAUAAGUCCAUGAGGACGAAACAG [G25A G31A]	0.347
ACCGGAUGUGCUUUCCGGUCUGAUAAGUCCUUGAGGACGAAACAG [G25A G31U]	0.416
ACCGGAUGUGCUUUCCGGUCUGAUAAGUCCCUGAGGACGAAACAG [G25A G31C]	0.326
ACCGGAUGUGCUUUCCGGUCUGAUAUGUCCGUGAGGACGAAACAG [G25A A26U]	0.341
ACCGGAUGUGCUUUCCGGUCUGAUAGGUCCGUGAGGACGAAACAG [G25A A26G]	0.306
ACCGGAUGUGCUUUCCGGUCUGAUACGUCCGUGAGGACGAAACAG [G25A A26C]	0.339
ACCGGAUGUGCUUUCCGGUCUGAGGAGUCCGUGAGGACGCAACAG [U24G A40C]	0.421
ACCGGAUGUGCUUUCCGGUCUGAGGAGUCCGUGAGGACGUAACAG [U24G A40U]	0.308
ACCGGAUGUGCUUUCCGGUCUGAGGAGUCCGUGAGGACGGAACAG [U24G A40G]	0.392
ACCGGAUGUGCUUUCCGGUCUGAGGGGUCCGUGAGGACGAAACAG [U24G A26G]	0.304
ACCGGAUGUGCUUUCCGGUCUGAGGCGUCCGUGAGGACGAAACAG [U24G A26C]	0.373
ACCGGAUGUGCUUUCCGGUCUGAGGUGUCCGUGAGGACGAAACAG [U24G A26U]	0.718
ACCGGAUGUGCUUUCCGGUCUGAGGAGUCCGUGAGGAUGAAACAG [U24G C38U]	0.656
ACCGGAUGUGCUUUCCGGUCUGAGGAGUCCGUGAGGAGGAAACAG [U24G C38G]	0.865
ACCGGAUGUGCUUUCCGGUCUGAGGAGUCCGUGAGGAAGAAACAG [U24G C38A]	0.742
ACCGGAUGUGCUUUCCGGUCUGAGGAGUCCGUGUGGACGAAACAG [U24G A34U]	0.679

Variant	self-cleavage
ACCGGAUGUGCUUUCCGGUCUGAGGAGUCCGUGGGGACGAAACAG [U24G A34G]	0.902
ACCGGAUGUGCUUUCCGGUCUGAGGAGUCCGUGCGGACGAAACAG [U24G A34C]	0.823
ACCGGAUGUGCUUUCCGGUCUGAGCAGUCCGUGAGGACGAAACAG [U24G G25C]	0.294
ACCGGAUGUGCUUUCCGGUCUGAGUAGUCCGUGAGGACGAAACAG [U24G G25U]	0.338
ACCGGAUGUGCUUUCCGGUCUGAGAAGUCCGUGAGGACGAAACAG [U24G G25A]	0.494
ACCGGAUGUGCUUUCCGGUCUGAUAAGUCCGUGAGGACGUAACAG [G25A A40U]	0.356
ACCGGAUGUGCUUUCCGGUCUGAUAAGUCCGUGAGGACGGAACAG [G25A A40G]	0.267
ACCGGAUGUGCUUUCCGGUCUGAUAAGUCCGUGAGGACGCAACAG [G25A A40C]	0.368
ACCGGAUGUGCUUUCCGGUCUGAGGAGUCCGUGAGGACAAAACAG [U24G G39A]	0.327
ACCGGAUGUGCUUUCCGGUCUGAGGAGUCCGUGAGGACCAAACAG [U24G G39C]	0.266
ACCGGAUGUGCUUUCCGGUCUGAGGAGUCCGUGAGGACUAAACAG [U24G G39U]	0.303
ACCGGAUGUGCUUUCCGGUCUGAUAAGUCCGUGAGGUCGAAACAG [G25A A37U]	0.272
ACCGGAUGUGCUUUCCGGUCUGAUAAGUCCGUGAGGGCGAAACAG [G25A A37G]	0.351
ACCGGAUGUGCUUUCCGGUCUGAUAAGUCCGUGAGGCCGAAACAG [G25A A37C]	0.301
ACCGGAUGUGCUUUCCGGUCUGACGAGUCCGAGAGGACGAAACAG [U24C U32A]	1.18
ACCGGAUGUGCUUUCCGGUCUGACGAGUCCGCGAGGACGAAACAG [U24C U32C]	1.2
ACCGGAUGUGCUUUCCGGUCUGACGAGUCCGGGAGGACGAAACAG [U24C U32G]	0.802
ACCGGAUGUGCUUUCCGGUCUGAGGAGUCCGGGAGGACGAAACAG [U24G U32G]	0.405
ACCGGAUGUGCUUUCCGGUCUGAGGAGUCCGAGAGGACGAAACAG [U24G U32A]	1.08
ACCGGAUGUGCUUUCCGGUCUGAGGAGUCCGCGAGGACGAAACAG [U24G U32C]	0.858
ACCGGAUGUGCUUUCCGGUCUGAGGAGUCCAUGAGGACGAAACAG [U24G G31A]	0.992
ACCGGAUGUGCUUUCCGGUCUGAGGAGUCCUUGAGGACGAAACAG [U24G G31U]	1.13
ACCGGAUGUGCUUUCCGGUCUGAGGAGUCCCUGAGGACGAAACAG [U24G G31C]	1.19

Variant	self-cleavage
ACCGGAUGUGCUUUCCGGUCUGACGAGUCCGUGAGGACUAAACAG [U24C G39U]	0.333
ACCGGAUGUGCUUUCCGGUCUGAGGAAUCCGUGAGGACGAAACAG [U24G G27A]	0.504
ACCGGAUGUGCUUUCCGGUCUGAGGACUCCGUGAGGACGAAACAG [U24G G27C]	0.692
ACCGGAUGUGCUUUCCGGUCUGAGGAUUCCGUGAGGACGAAACAG [U24G G27U]	0.438
ACCGGAUGUGCUUUCCGGUCUGAGGAGUCCGUGAGGACGAAAGAG [U24G C43G]	0.337
ACCGGAUGUGCUUUCCGGUCUGAGGAGUCCGUGAGGACGAAAAAG [U24G C43A]	0.402
ACCGGAUGUGCUUUCCGGUCUGAGGAGUCCGUGAGGACGAAAUAG [U24G C43U]	0.463
ACCGGAUGUGCUUUCCGGUCUGAGGAGUCGGUGAGGACGAAACAG [U24G C30G]	0.727
ACCGGAUGUGCUUUCCGGUCUGAGGAGUCUGUGAGGACGAAACAG [U24G C30U]	0.996
ACCGGAUGUGCUUUCCGGUCUGAGGAGUCAGUGAGGACGAAACAG [U24G C30A]	0.626
ACCGGAUGUGCUUUCCGGUCUGAGGAGUCCGUGAGGACGAACCAG [U24G A42C]	0.343
ACCGGAUGUGCUUUCCGGUCUGAGGAGUCCGUGAGGACGAAUCAG [U24G A42U]	0.324
ACCGGAUGUGCUUUCCGGUCUGAGGAGUCCGUGAGGACGAAGCAG [U24G A42G]	0.346
ACCGGAUGUGCUUUCCGGUCUGAUAAGUCCGUGAGGACGAAACAG [G25A]	0.377
ACCGGAUGUGCUUUCCGGUCUGAGGAGUCCGUGAGGGCGAAACAG [U24G A37G]	0.659
ACCGGAUGUGCUUUCCGGUCUGAGGAGUCCGUGAGGCCGAAACAG [U24G A37C]	1.05
ACCGGAUGUGCUUUCCGGUCUGAGGAGUCCGUGAGGUCGAAACAG [U24G A37U]	0.854
ACCGGAUGUGCUUUCCGGUCUGAGGAGACCGUGAGGACGAAACAG [U24G U28A]	0.912
ACCGGAUGUGCUUUCCGGUCUGAGGAGGCCGUGAGGACGAAACAG [U24G U28G]	0.885
ACCGGAUGUGCUUUCCGGUCUGAGGAGCCCGUGAGGACGAAACAG [U24G U28C]	0.971
ACCGGAUGUGCUUUCCGGUCUGAGGAGUCCGUGAGGACGAAACGG [U24G A44G]	1.49
ACCGGAUGUGCUUUCCGGUCUGAGGAGUCCGUGAGGACGAAACUG [U24G A44U]	0.608
ACCGGAUGUGCUUUCCGGUCUGAGGAGUCCGUGAGGACGAAACCG [U24G A44C]	0.617

Variant	self-cleavage
ACCGGAUGUGCUUUCCGGUCUGAUAAGUCCGUGUGGACGAAACAG [G25A A34U]	0.357
ACCGGAUGUGCUUUCCGGUCUGAUAAGUCCGUGCGGACGAAACAG [G25A A34C]	0.278
ACCGGAUGUGCUUUCCGGUCUGAUAAGUCCGUGGGGACGAAACAG [G25A A34G]	0.3
ACCGGAUGUGCUUUCCGGUCUGAGGAGUCCGUGAGGACGAGACAG [U24G A41G]	0.308
ACCGGAUGUGCUUUCCGGUCUGAGGAGUCCGUGAGGACGACACAG [U24G A41C]	0.322
ACCGGAUGUGCUUUCCGGUCUGAGGAGUCCGUGAGGACGAUACAG [U24G A41U]	0.323
ACCGGAUGUGCUUUCCGGUCUGAUAAGUCCGUGAGGACGAAAAAG [G25A C43A]	0.294
ACCGGAUGUGCUUUCCGGUCUGAUAAGUCCGUGAGGACGAAAUAG [G25A C43U]	0.341
ACCGGAUGUGCUUUCCGGUCUGAUAAGUCCGUGAGGACGAAAGAG [G25A C43G]	0.338
ACCGGAUGUGCUUUCCGGUCUGAGGAGUACGUGAGGACGAAACAG [U24G C29A]	0.447
ACCGGAUGUGCUUUCCGGUCUGAGGAGUUCGUGAGGACGAAACAG [U24G C29U]	0.987
ACCGGAUGUGCUUUCCGGUCUGAGGAGUGCGUGAGGACGAAACAG [U24G C29G]	0.781
ACCGGAUGUGCUUUCCGGUCUGAUAAGUCCGUGAGGAAGAAACAG [G25A C38A]	0.379
ACCGGAUGUGCUUUCCGGUCUGAUAAGUCCGUGAGGAUGAAACAG [G25A C38U]	0.317
ACCGGAUGUGCUUUCCGGUCUGAUAAGUCCGUGAGGAGGAAACAG [G25A C38G]	0.33
ACCGGAUGUGCUUUCCGGUCUGAGGAGUCCGUGAGGACGAAACAG [U24G]	1.03
ACCGGAUGUGCUUUCCGGUCUGACGAGCCCGUGAGGACGAAACAG [U24C U28C]	1.06
ACCGGAUGUGCUUUCCGGUCUGACGAGACCGUGAGGACGAAACAG [U24C U28A]	0.614
ACCGGAUGUGCUUUCCGGUCUGACGAGGCCGUGAGGACGAAACAG [U24C U28G]	0.99
ACCGGAUGUGCUUUCCGGUCUGACGAGUCCGUGAGGACGAAACAC [U24C G45C]	0.641
ACCGGAUGUGCUUUCCGGUCUGACGAGUCCGUGAGGACGAAACAA [U24C G45A]	0.465
ACCGGAUGUGCUUUCCGGUCUGACGAGUCCGUGAGGACGAAACAU [U24C G45U]	0.669

Source: the RNAGym collection of RNA variant scans (doi:10.7554/elife.80360)
